Consider 11 molecules from US20120316071A1 (published 2012).

Where a chain is given by its changes, count along the chain named. Numbers in names are those of the source.

Assay [1] concerns the target T1, rHuman IGF-1 sR, (IGF-1 sR), CF (R&D Systems Cat#391-GR) (human, UniProt P08069 31-932).
T1 construct: Bought soluble receptor; also called insulin-like growth factor-1 soluble receptor
Kind of assay: ECL multispot (MSD) assay; antigen spotted on plate, Fab in solution.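 Note: purified Fab incubated 1 hour at 20 °C in 1% BSA TBST on antigen-coated wells, detected with TAG antibody, ECL read on Sector Imager 2400, compared to each well's blank.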

Assay [2] addresses T2, rHuman Notch-1/Fc Chimera, CF (R&D Systems Cat#3647-TK) (human, UniProt P46531 19-526).
T2 construct: Bought protein; Fc part of the bought chimera not given
The assay is described as above.

In assay [3] the target is T3, rHuman EGF R/Fc Chimera, CF (R&D Systems Cat#344-ER) (human, UniProt P00533 25-645).
T3 construct: Bought protein; also called epidermal growth factor receptor; Fc part of the bought chimera not given
The assay is described as above.

Assay [4] deals with T4, rHuman Erythropoietin R/Fc Chimera, CF (R&D Systems Cat#963-ER) (human, UniProt P19235 25-250).
T4 construct: Bought protein; also called EPO R; EPO R/Fc; Fc part of the bought chimera not given
T4 sequence (looked up): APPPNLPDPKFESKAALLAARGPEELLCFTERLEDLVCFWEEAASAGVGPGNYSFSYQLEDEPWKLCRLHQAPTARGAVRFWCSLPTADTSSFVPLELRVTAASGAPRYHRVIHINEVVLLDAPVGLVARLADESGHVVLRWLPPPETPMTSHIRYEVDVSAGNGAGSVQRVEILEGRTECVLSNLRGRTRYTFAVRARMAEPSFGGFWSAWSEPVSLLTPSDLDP
Described as above.

Assay [5] has as its target T5, rHuman P-Cadherin/Fc Chimera, CF (R&D Systems Cat#861-PC) (human, UniProt P22223 108-654).
T5 construct: Bought protein; Fc part of the bought chimera not given
Described as above.

Assay [6] addresses T6, rHuman HGF R/c-MET/Fc Chimera, CF (R&D Systems Cat#358-MT/CF) (human, UniProt P08581 25-932).
T6 construct: Bought protein; also called HGF R/Fc; hepatocyte growth factor receptor; Fc part of the bought chimera not given
Described as above.

In assay [7] the target is T7, rHuman ErbB2/Fc Chimera, CF (R&D Systems Cat#1129-ER) (human, UniProt P04626 23-652).
T7 construct: Bought protein; also called human epidermal growth factor 2 receptor; Fc part of the bought chimera not given
Described as above.

Assay [8] deals with T8, rHuman CD44/Fc Chimera, CF (R&D Systems Cat#3660-CD) (human, UniProt P16070 21-220).
T8 construct: Bought protein; Fc part of the bought chimera not given
Described as above.

Assay [9] addresses T9, Recombinant Human DLL4 (R&D Systems Cat#1506-D4/CF) (human, UniProt Q9NR61 27-524).
T9 construct: Bought recombinant protein; also called delta-like protein 4; rHuman DLL4
The assay is described as above.

Assay [10] deals with T10, Recombinant Human DLL4 (delta-like protein 4) (human, UniProt Q9NR61 27-524).
T10 construct: Bought recombinant human DLL4 (R&D Systems Cat#1506-D4/CF); also called rHuman DLL4; Delta-like 4
Description: ELISA, DLL4 coated on plate, Fab at 100 nM. Background: An ELISA detects its analyte on a solid surface through an enzyme-linked reagent.

Assay [11] has as its target T10, Recombinant Human DLL4 (delta-like …). Kind of assay: ELISA, DLL4 coated on plate, Fab at 75 nM.
The target is the same in assay [12]. Description: ELISA, DLL4 coated on plate, Fab at 50 nM.
The target is the same in assay [13]. Kind of assay: ELISA, DLL4 coated on plate, Fab at 0 nM (no-Fab background).
The target is the same in assay [14]. Kind of assay: ELISA, DLL4 coated on plate, Fab at 25 nM (first 25 nM row).
Assay [15] has the same target. Kind of assay: ELISA, DLL4 coated on plate, Fab at 0 nM (no-Fab background, second 0 row).
Assay [16] has the same target. Kind of assay: ELISA, DLL4 coated on plate, Fab at 25 nM (second 25 nM row).
Assay [17] shares this target. Description: ELISA, DLL4 coated on plate, Fab at 0 nM (no-Fab background, first 0 row).
The target is the same in assay [18]. Kind of assay: ELISA, DLL4 coated on plate, Fab at 400 nM.
For assay [19] the target is unchanged. Description: ELISA, DLL4 coated on plate, Fab at 200 nM.
Assay [20] has the same target. Description: ELISA, DLL4 coated on plate, Fab at 50 nM. The source holds these as a separate data set.
The target is the same in assay [21]. Description: ELISA, DLL4 coated on plate, Fab at 100 nM. The source holds these as a separate data set.

T6 sequence (P08581 25-932, change not shown): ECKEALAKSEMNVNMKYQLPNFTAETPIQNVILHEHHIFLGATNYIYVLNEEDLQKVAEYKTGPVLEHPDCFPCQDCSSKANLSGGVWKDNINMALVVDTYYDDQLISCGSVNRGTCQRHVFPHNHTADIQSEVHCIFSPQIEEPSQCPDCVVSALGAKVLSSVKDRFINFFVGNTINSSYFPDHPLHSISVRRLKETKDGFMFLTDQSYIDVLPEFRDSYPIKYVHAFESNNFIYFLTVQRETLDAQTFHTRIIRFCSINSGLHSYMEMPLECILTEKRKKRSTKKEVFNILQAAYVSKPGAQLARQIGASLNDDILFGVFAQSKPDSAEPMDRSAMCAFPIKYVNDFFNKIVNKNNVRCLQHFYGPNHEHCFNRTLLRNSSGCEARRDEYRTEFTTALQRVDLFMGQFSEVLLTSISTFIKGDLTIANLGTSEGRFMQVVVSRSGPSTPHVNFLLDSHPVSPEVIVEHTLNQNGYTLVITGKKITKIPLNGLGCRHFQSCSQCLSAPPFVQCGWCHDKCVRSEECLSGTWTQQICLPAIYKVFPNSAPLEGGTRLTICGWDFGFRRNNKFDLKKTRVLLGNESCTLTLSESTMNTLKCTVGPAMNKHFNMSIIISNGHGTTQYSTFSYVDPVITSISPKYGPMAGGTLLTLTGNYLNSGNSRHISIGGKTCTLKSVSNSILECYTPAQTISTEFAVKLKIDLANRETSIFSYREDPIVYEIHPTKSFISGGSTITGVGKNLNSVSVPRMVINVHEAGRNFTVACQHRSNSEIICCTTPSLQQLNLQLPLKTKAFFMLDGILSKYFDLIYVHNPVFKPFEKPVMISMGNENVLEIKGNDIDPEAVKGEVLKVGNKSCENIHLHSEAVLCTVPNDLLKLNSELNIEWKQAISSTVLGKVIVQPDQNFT

B1: Fab VH1-46_IGHD6-6*01_IGHJ1*01 S102A/S103P/S104F (APF) & L6_IGKJ1*01 S30W (Fab, V domains shown)
VH: QVQLVQSGAEVKKPGASVKVSCKASGYTFTSYYMHWVRQAPGQGLEWMGIINPSGGSTSYAQKFQGRVTMTRDTSTSTVYMELSSLRSEDTAVYYCAREEYAPFSAEYFQHWGQGTLVTVSS
VL: EIVLTQSPATLSLSPGERATLSCRASQSVWSYLAWYQQKPGQAPRLLIYDASNRATGIPARFSGSGSGTDFTLTISSLEPEDFAVYYCQQRSNWPPWTFGQGTKVEIKR
notes: Tested as Fab made in E. coli; The heavy chain vector (Plasmid A) adds CH1 with His and Flag tags, the kappa vector (Plasmid C) adds CL kappa; also called APF / S30W
For the molecule B1, the ECL signal in assay [1] came to 157 ECL signal; in assay [2] it was 105 ECL signal; in assay [3], 132 ECL signal; in assay [4] it was 30 ECL signal; in [5] it was 39 ECL signal; in assay [6], 62 ECL signal. Besides, the values for the ECL signal in [7], in assay [8] and in assay [9] were 73 ECL signal, 186 ECL signal and 791 ECL signal, respectively.

B2: Fab VH1-46_IGHD6-6*01_IGHJ1*01 S102A/S103P/S104F/H111F/G56A & L6_IGKJ1*01 (Fab, V domains shown)
VH: B1 VH with G56A, H111F
VL: not shown
notes: Tested as a Fab; also called APFF G56A & Parent
Take B2: the ELISA signal in assay [10] came to 0.338; in assay [11] it was 0.399; in assay [12], 0.301; in [13], 0.002.

B3: Fab VH1-46_IGHD6-6*01_IGHJ1*01 S102A/S103P/S104F/H111F & L6_IGKJ1*01 S28N (Fab, V domains shown)
VH: B1 VH with H111F
VL: B1 VL with S28N, W30S
notes: Tested as a Fab; also called APFF & S28N
Take B3: the ELISA signal came out at 0.04 in assay [14]; 0 in assay [15]; 0.05 in assay [16]; 0 in [17]; 0.19 in assay [18]; 0.17 in [19]. Besides, the figures for the ELISA signal in assay [20] and in assay [21] were 0.07 and 0.13, respectively.

B4: Fab VH1-46_IGHD6-6*01_IGHJ1*01 S102A/S103P/S104F/H111F & L6_IGKJ1*01 S28N/S30D/S31H (Fab, V domains shown)
VH: B1 VH with H111F
VL: B1 VL with S28N, W30D, S31H
notes: Tested as a Fab; also called H:APFF & L:NDH; APFF-NDH
Turning to B4, the ELISA signal in [10] is 0.259; in [11], 0.268; in [12], 0.202; in assay [13], 0.002.

B5: Fab VH1-46_IGHD6-6*01_IGHJ1*01 S102A/S103P/S104F/H111F & L6_IGKJ1*01 S30D (Fab, V domains shown)
VH: B1 VH with H111F
VL: B1 VL with W30D
notes: Tested as a Fab; also called APFF & S30D
Take B5: the ELISA signal in assay [14] is 0.03; in assay [15], 0.01; in assay [16] it was 0.03; in [17], 0; in assay [18], 0.13; in assay [19], 0.11. Moreover, the ELISA signal in assay [20] amounted to 0.06; in [21], 0.09.

B6: Fab VH1-46_IGHD6-6*01_IGHJ1*01 S102A/S103P/S104F/H111F & L6_IGKJ1*01 S28H (Fab, V domains shown)
VH: B1 VH with H111F
VL: B1 VL with S28H, W30S
notes: Tested as a Fab; also called APFF & S28H
For the molecule B6, the ELISA signal in [14] is 0.03; in assay [15] it was 0; in [16] it was 0.03; in assay [17], 0.01; in assay [18] it was 0.13; in [19] it was 0.14. Also, the ELISA signal is 0.05 in assay [20] and 0.09 in assay [21].

B7: Fab VH1-46_IGHD6-6*01_IGHJ1*01 S102A/S103P/S104F (APF) & L6_IGKJ1*01 (Fab, V domains shown)
VH: B1 VH
VL: not shown
notes: Tested as Fab made in E. coli; The heavy chain vector (Plasmid A) adds CH1 with His and Flag tags, the kappa vector (Plasmid C) adds CL kappa; also called APF / parent; H:APF & L:wt
Turning to B7, the ECL signal is 217 ECL signal in [1]; 135 ECL signal in [2]; 161 ECL signal in [3]; 105 ECL signal in assay [4]; 117 ECL signal in assay [5]; 86 ECL signal in assay [6]. Besides, the ECL signal in [7] was found to be 61 ECL signal; in [8] it was 66 ECL signal; in assay [9], 803 ECL signal.

B8: Fab VH1-46_IGHD6-6*01_IGHJ1*01 S102A/S103P/S104F/H111F & L6_IGKJ1*01 S31H (Fab, V domains shown)
VH: B1 VH with H111F
VL: B1 VL with W30S, S31H
notes: Tested as a Fab; also called APFF & S31H
Turning to B8, the ELISA signal in assay [14] turned out to be 0.03; in assay [15] it was 0; in [16], 0.03; in [17], 0; in assay [18], 0.2; in [19] it was 0.11. In addition, the ELISA signal in assay [20] was found to be 0.05; in assay [21], 0.09.

B9: Fab VH1-46_IGHD6-6*01_IGHJ1*01 S102A/S103P/S104F (APF) & L6_IGKJ1*01 S30L (Fab, V domains shown)
VH: B1 VH
VL: B1 VL with W30L
notes: Tested as Fab made in E. coli; The heavy chain vector (Plasmid A) adds CH1 with His and Flag tags, the kappa vector (Plasmid C) adds CL kappa; also called APF / S30L
As to B9, the ECL signal in [1] was determined as 193 ECL signal; in [2], 296 ECL signal; in assay [3], 288 ECL signal; in assay [4], 259 ECL signal; in assay [5] it was 260 ECL signal; in [6], 250 ECL signal. Besides, the ECL signal was 244 ECL signal in assay [7], 240 ECL signal in assay [8] and 1630 ECL signal in [9].

B10: Fab VH1-46_IGHD6-6*01_IGHJ1*01 S102A/S103P/S104F (APF) & L6_IGKJ1*01 S30T (Fab, V domains shown)
VH: B1 VH
VL: B1 VL with W30T
notes: Tested as Fab made in E. coli; The heavy chain vector (Plasmid A) adds CH1 with His and Flag tags, the kappa vector (Plasmid C) adds CL kappa; also called APF / S30T
For B10, the ECL signal in assay [1] was found to be 204 ECL signal; in assay [2], 127 ECL signal; in assay [3], 274 ECL signal; in [4], 207 ECL signal; in assay [5], 195 ECL signal; in [6], 297 ECL signal. The values for the ECL signal in assay [7], in assay [8] and in assay [9] were 243 ECL signal, 229 ECL signal and 1020 ECL signal, respectively.

B11: Fab VH1-46_IGHD6-6*01_IGHJ1*01 S102A/S103P/S104F (APF) & L6_IGKJ1*01 S30R (Fab, V domains shown)
VH: B1 VH
VL: B1 VL with W30R
notes: Tested as Fab made in E. coli; The heavy chain vector (Plasmid A) adds CH1 with His and Flag tags, the kappa vector (Plasmid C) adds CL kappa; also called APF / S30R
Regarding B11, the ECL signal came out at 86 ECL signal in assay [1]; 155 ECL signal in assay [2]; 140 ECL signal in assay [3]; 87 ECL signal in assay [4]; 39 ECL signal in [5]; 108 ECL signal in assay [6]. The results for the ECL signal in assay [7], in [8] and in assay [9] were 35 ECL signal, 89 ECL signal and 745 ECL signal, respectively.
